From EP1655308B1, “Adducts of soluble ovalbumin with trivalent iron polyalcohol complexes and method to produce them” (Tedec-Meiji Farma, S.A., priority 2004, dated 2006)

Assay: Solubility of the lyophilised adduct at 1 %
Type: physicochemical
Conditions: lyophilised powder, 1 % solution
Procedure: a) Iron - manitol complex: 31.5 g of FeCl3·6H2O are dissolved jointly with 7.9 g of manitol in 400 ml of water. A solution of 18 g of NaOH in 48 ml of water is added under vigorous stirring. It is heated to 95° C, letting it spontaneously cool down to ambient temperature. b) Treated ovalbumin: 37.50 g of commercial ovalbumin in powder form are dispersed under vigorous stirring in 180 ml of water. A solution of 30 g of NaOH in 550 ml of water is heated separately to 65° C. The protein dispersion is added to the alkaline solution and is digested at 65° C for 15 minutes, with the pH being subsequently adjusted to a value between 8.5 - 10 with 6M HCl. While keeping the solution at 50° C and pH 8.5 - 10, Esperase® (NOVO-NORDISK) is added in a quantity of 1 ‰ of the initial albumin (37.5 mg), proteolytically digesting it, under gentle stirring, for 2 hours at 50° C without any pH correction. Once this time has elapsed, the spontaneous pH is 8.5. The solution is heated to 80° C in order to deactivate the remaining enzymatic activity, the pH is adjusted to 10 with 10M NaOH and, when the temperature goes down to 65° C, 2 ml/l of 30 % w/v H2O2 are added. […]

## Adduct between treated ovalbumin and iron (III) - manitol complex [Example 1]
  1 % solubility: limpid
